Patent US20030077661A1 (ST JUDE CHILDREN S RESEARCH HOSPITAL, published 2003)

Experiments:
[1] = target: the molecule itself; assay: SDS-PAGE of the purified fragment (self-association)
Method: As the ATM kinase domain interacts stably with the domain containing the autophosphorylation site, it was determined whether a truncated recombinant ATM molecule that included the phosphorylation and kinase domains would fold properly and have kinase activity. A galactose-inducible pYES plasmid containing 6×-His-FLAG®-tagged ATM¹⁹²³⁻³⁰⁵⁶ was transfected into Saccharomyces cerevisiae and a soluble ATM fragment was recovered. The polypeptide was purified by anti-FLAG® affinity chromatography.

[2] = target: T1, 6×-Histidine (6×-His) fusion protein containing the C-terminal kinase domain of ATM, residues 2712-3056 (Homo sapiens (Human), UniProt Q13315 2712-3056); assay: co-expression in E. coli; kinase domain remained insoluble
T1 construct: also called ATM kinase domain; not shown: 6×-His tag from pET28
T1 sequence: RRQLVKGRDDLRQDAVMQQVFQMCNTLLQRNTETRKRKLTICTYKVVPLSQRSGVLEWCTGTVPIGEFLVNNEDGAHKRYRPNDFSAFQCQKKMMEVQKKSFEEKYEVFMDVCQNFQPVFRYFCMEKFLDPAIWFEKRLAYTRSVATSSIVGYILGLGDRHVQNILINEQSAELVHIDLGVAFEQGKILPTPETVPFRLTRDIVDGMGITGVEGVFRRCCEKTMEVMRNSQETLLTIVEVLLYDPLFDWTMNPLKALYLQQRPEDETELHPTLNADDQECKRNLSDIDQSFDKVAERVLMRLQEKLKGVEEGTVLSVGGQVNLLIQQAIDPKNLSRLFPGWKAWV
From the text: A further aspect of the invention provides a method of producing soluble ATM kinase by contacting the kinase domain of ATM with a fragment of ATM kinase containing Ser¹⁹⁸¹. […] Although the kinase domain was insoluble in bacteria when co-transfected with GST alone or a GST fusion with the ATM target peptide p53 (residues 1-101), a significant percentage was stabilized and solubilized in the presence of the GST-ATM¹⁹⁶¹⁻²⁰⁴⁶ fusion protein. The kinase domain was also solubilized in the presence of the GST-ATM¹⁹⁶¹⁻²⁰⁴⁶ fusion protein containing Ser¹⁹⁸¹→Ala, but remained insoluble in the presence of phosphorylation-mimic fusion peptides, Ser¹⁹⁸¹→Asp and Ser¹⁹⁸¹→Glu. Furthermore, the soluble kinase domain co-purified on glutathione-agarose with the GST-ATM¹⁹⁶¹⁻²⁰⁴⁶ fusion proteins containing wild-type sequence or Ser¹⁹⁸¹→Ala.

B1: 6×-His-FLAG®-tagged ATM^1923-3056 (enzyme)
chain: SSGTIFNDAFWLDLNYLEVAKVAQSCAAHFTALLYAEIYADKKSMDDQEKRSLAFEEGSQSTTISSLSEKSKEETGISLQDLLLEIYRSIGEPDSLYGCGGGKMLQPITRLRTYEHEAMWGKALVTYDLETAIPSSTRQAGIIQALQNLGLCHILSVYLKGLDYENKDWCPELEELHYQAAWRNMQWDHCTSVSKEVEGTSYHESLYNALQSLRDREFSTFYESLKYARVKEVEEMCKRSLESVYSLYPTLSRLQAIGELESIGELFSRSVTHRQLSEVYIKWQKHSQLLKDSDFSFQEPIMALRTVILEILMEKEMDNSQRECIKDILTKHLVELSILARTFKNTQLPERAIFQIKQYNSVSCGVSEWQLEEAQVFWAKKEQSLALSILKQMIKKLDASCAANNPSLKLTYTECLRVCGNWLAETCLENPAVIMQTYLEKAVEVAGNYDGESSDELRNGKMKAFLSLARFSDTQYQRIENYMKSSEFENKQALLKRAKEEVGLLREHKIQTNRYTVKVQRELELDELALRALKEDRKRFLCKAVENYINCLLSGEEHDMWVFRLCSLWLENSGVSEVNGMMKRDGMKIPTYKFLPLMYQLAARMGTKMMGGLGFHEVLNNLISRISMDHPHHTLFIILALANANRDEFLTKPEVARRSRITKNVPKQSSQLDEDRTEAANRIICTIRSRRPQMVRSVEALCDAYIILANLDATQWKTQRKGINIPADQPITKLKNLEDVVVPTMEIKVDHTGEYGNLVTIQSFKAEFRLAGGVNLPKIIDCVGSDGKERRQLVKGRDDLRQDAVMQQVFQMCNTLLQRNTETRKRKLTICTYKVVPLSQRSGVLEWCTGTVPIGEFLVNNEDGAHKRYRPNDFSAFQCQKKMMEVQKKSFEEKYEVFMDVCQNFQPVFRYFCMEKFLDPAIWFEKRLAYTRSVATSSIVGYILGLGDRHVQNILINEQSAELVHIDLGVAFEQGKILPTPETVPFRLTRDIVDGMGITGVEGVFRRCCEKTMEVMRNSQETLLTIVEVLLYDPLFDWTMNPLKALYLQQRPEDETELHPTLNADDQECKRNLSDIDQSFDKVAERVLMRLQEKLKGVEEGTVLSVGGQVNLLIQQAIDPKNLSRLFPGWKAWV
notes: Expressed in S. cerevisiae from pYES2; also called soluble ATM fragment; truncated recombinant ATM; not shown: N-terminal 6×-His and FLAG tags
- binding result [1]: binds

B2: GST-ATM^1961-2046 phosphorylation-mimic fusion peptide Ser^1981→Asp (other)
chain: YADKKSMDDQEKRSLAFEEGDQSTTISSLSEKSKEETGISLQDLLLEIYRSIGEPDSLYGCGGGKMLQPITRLRTYEHEAMWGKAL
notes: not shown: glutathione-S-transferase (GST) as encoded by pGEX-4T-1
- binding result [2]: no binding

B3: GST-ATM^1961-2046 phosphorylation-mimic fusion peptide Ser^1981→Glu (other)
chain: YADKKSMDDQEKRSLAFEEGEQSTTISSLSEKSKEETGISLQDLLLEIYRSIGEPDSLYGCGGGKMLQPITRLRTYEHEAMWGKAL
notes: as for B2
- binding result [2]: no binding
